Reference: publication doi:10.1101/2024.09.06.611148

Target: Alexa-647 NHS-labelled tubulin (UniProt P02550)
Assay: MST

Alexa-647 NHS-labelled tubulin, sequence (P02550 whole entry, looked up): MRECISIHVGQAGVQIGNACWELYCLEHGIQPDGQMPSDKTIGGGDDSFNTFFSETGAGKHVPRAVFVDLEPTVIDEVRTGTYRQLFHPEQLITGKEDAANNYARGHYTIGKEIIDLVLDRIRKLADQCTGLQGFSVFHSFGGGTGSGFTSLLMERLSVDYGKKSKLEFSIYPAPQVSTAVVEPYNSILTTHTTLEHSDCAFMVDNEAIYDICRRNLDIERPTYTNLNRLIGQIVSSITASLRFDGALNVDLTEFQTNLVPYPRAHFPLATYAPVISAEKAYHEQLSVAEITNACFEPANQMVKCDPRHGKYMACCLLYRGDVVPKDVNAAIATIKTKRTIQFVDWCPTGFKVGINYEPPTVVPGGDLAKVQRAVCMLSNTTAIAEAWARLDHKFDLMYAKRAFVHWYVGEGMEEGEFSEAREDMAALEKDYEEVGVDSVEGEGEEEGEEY

Kd: 690 nM
Substance: recombinant HYC2 (GST-HYC2 or HYC2-6XHis) (from UniProt Q9FMI8 1-448) (natural protein)
